Experiment: soluble on expression in E. coli; label from the status in PepcDB or PDB records
For “MKTTDLFSTLENNILRNSLDSTTKDKLLSNLSLLRKASLNILITGSTGSGKSSTINALFDMTVAQVGIDSDPHTESVQCYHLNNLVLWDTPGLGDGIDEDKKHVQAIKQLLNKRDDHGQLAIDLVLVILDGGSRDLGTPLRLINDIVIPQLGDDAEKRLIVAVNQADVALKGPESWNYSDNLPTDKAKAFLEKQQNSIARRIHKATQINVKTLYFVAGYSDGVNRQRPYNLSKLLYTIVEILPNNKRVMLANRTISNDADNWKDNDASDYNKKTTLSLWEAIVETTLQGASIGSDIGSIFGKPGEILGKVVGSVAGLFFGGLRYTFGFLEHHHHHH”, the “soluble on expression in E. coli” value was “soluble”.
For “MLLTCRFTAATSRLSACTRSFSIDFSHEKPAPHQLEHVTTRLTETVPLMFRRRMDYTFYRKDVVCDDQIFSVEKRGIEQLMSHFGMIGTLGQVFLPHVEMEMLSVAPVIDEGTVRCRWRVKYVSFTRIIMNPRLLRFDYRMQNLSWFDGYSVLTVDGNGEVYKVTLQKMQQDEQKSLLTSTTEKLKEKLAPSAANN”, the “soluble on expression in E. coli” value was “not soluble”.
For “MGSDKIHHHHHHMRVALLMGGVSREREISLRSGERVKKALEKLGYEHTVFDVREDFLKKVDQLKSFDVVFNVLHGTFGEDVTLQAILDFLGIRYTGSDAFSSMICFDKLVTYRFLKGTVEIPDFVEIKEFMKTSPLGYPCVVKPRREGSSIGVFVCESDEEFQHALKEDLPRYGSVIVQKYIPGREMTVSILETEKGFEILPVLELRPKRRFYDYVAKYTKGETEFILPAPLNPSEERLVKEMALKAFVEAGCRGFGRVDGIFSDGRFYFLEINTVPGLTETSDLPASAKAGGIEFEELVEIILKSAFLKEGVRV”, the “soluble on expression in E. coli” value was “not soluble”.
For “MGSDKIHHHHHHMRTVQAISGLVTSRFFGTSTRIMASGKTLNTSNINPNVIKMEYAVRGPIVIRAVELEKELATGAQKPFPNVIKANIGDAHAMGQKPITFIRQLLACIVNPEIMKTDKSIPSDVIEHANAFLGSCGGKSAGAYSQSTGVEIVRKHVAEYIKRRDGGIPCNSEDVCLSGGASESIRNVLKLFINHNNAKKVGVMIPIPQYPLYSATIEEFGLGQVGYYLSESSNWSMDEAELERSFNDHCKEYDIRVLCIINPGNPTGQALSRENIETIIKFAQKKNLFLMADEVYQDNVYAQGSQFHSFKKVLVEMGEPYNKMELASFHSVSKGYMGECGMRGGYVEFLNLDPEVYVLFKKMISAKLCSTVLGQAVIDAVVNPPKEGDASYALWKQEKDAVLASLKERATLVEKAYSSIDGISCNPVQGAMYAFPQITIPQRAVEKAQSLNQQPDFFYAMQLLETTGICIVPGSGFGQKDGTYHFRTTILPQPELFKDMLSRFTDFHQKFLAEYKRLYCHFHLTNNRTSDSFWHTLIDGFPKYKVFVQNRRSTQCAFHSIQLSRF”, the “soluble on expression in E. coli” value was “not soluble”.
For “MTTAFFVAADWLAEHIDDPEIQILDARMAPPGQEHRDMAGEYRAGHIPGALFFDIEALSDRASPLPHMMPRPEAFAVAMRELGVRQDKHLVIYDEGNLFSAPRAWWMLRTFGAEKVSILAGGLAGWQRDEWLLREGEEAHEGGEFEAKFAPQAVVRLTDVLLASHEKTAQIVDARPAARFNAQADEPRPGLRRGHIPGALNVPWTELVYEGELKTTDELNEVFFSHGVSFDRPIIASCGSGVTAAVVVLALATLDVPDVTLYDGAWSEWGARTDLPVEPA”, the “soluble on expression in E. coli” value was “not soluble”.
In the case of “MEKSYMKHELWGDGDFQEDDVWDVLDGYQSPFMISSNHTTKPSFSTQTLLPSEPRMIPERQRTEGMAPMRQQSVPVNVPDWSMVQRKKTKKVVDDENVSPEEYFLRRSRSSSSSSVMEGVGRKLKGRDLSKVRNAILKQTGFLE”, the “soluble on expression in E. coli” value is reported as “soluble”.
With “MSLNPAYFVLLVEELKTKYLVKDICQILQVPLSTYYRWKKKDFSQSSLEKKIGQLCKAYQFTYGYRKIAALMKQEEQVGINKVQRIMQKYQWQCQVKVKKKNRPGSAYYQTENHLNRNFQASQPLEKLTTDITYLYFGDCRLYLSSIMDLYNGEIVAYSIGEKQDTELVLDTLNQLSLPEGSLLHSDQGSVYTSYEYYQCCKKKNVIRSMSRKGTPADNAPIECFHSSLKCETFYHKTAYKYAKSIVIQIVKDYIKYYNEKRIQQKLGYQSPINFRKQAEGHHHHHH” the “soluble on expression in E. coli” value was “not soluble”.
With “MSLKILVLGIGNILFGDEGIGVHLSNLLKVNYRFEGPHQVDVIDGGTLAQLLIPLITSYDYVIVIDCVDAGGGKIGEVYFFDFDNVPNVITWQGSAHEVEMLQTLRMTEVNGDLPPVKIVGVIPSIIGSETAFDLSKEVAEASVTMEKIVLNHLQELGVEITRIDSKTIDEIAPLSYKGEGHHHHHH” the “soluble on expression in E. coli” value was “soluble”.
In the case of “MSQQPGVLPENMKRYMGRDAQRMNILAGRIIAETVRSTLGPKGMDKMLVDDLGDVVVTNDGVTILREMSVEHPAAKMLIEVAKTQEKEVGDGTTTAVVVAGELLRKAEELLDQNVHPTIVVKGYQAAAQKAQELLKTIACEVGAQDKEILTKIAMTSITGKGAEKAKEKLAEIIVEAVSAVVDDEGKVDKDLIKIEKKSGASIDDTELIKGVLVDKERVSAQMPKKVTDAKIALLNCAIEIKETETDAEIRITDPAKLMEFIEQEEKMLKDMVAEIKASGANVLFCQKGIDDLAQHYLAKEGIVAARRVKKSDMEKLAKATGANVITNIKDLSAQDLGDAGLVEERKISGDSMIFVEECKHPKAVTMLIRGTTEHVIEEVARAVDDAVGVVGCTIEDGRIVSGGGSTEVELSMKLREYAEGISGREQLAVRAFADALEVIPRTLAENAGLDAIEILVKVRAAHASNGNKCAGLNVFTGAVEDMCENGVVEPLRVKTQAIQSAAESTEMLLRIDDVIAAEKLRGAPDMGDMGGMPGMGGMPGMM”, the “soluble on expression in E. coli” value is reported as “soluble”.
For “MSSAHNAYNAGIMQKTGKAFADEFFAEENQVVHESNAVVLVLMKSDEIDAIIEDIVLKGGKAKNPSIVVEDKAGFWWIKADGAIEIDAAEAGELLGKPFSVYDLLINVSSTVGRAYTLGTKFTITSELMGLDRALTDI”, the “soluble on expression in E. coli” value was “soluble”.
With “MGSDKIHHHHHHMGNRRGFLKMSASLAAAPLIPESSAVSNELDIPVSNKRPHELARDEAHWRAVGRLYSIQEEIINLEHGYWGQMSIPVEQALARHTHRVNRELSWYARREYDRDFLKARAAVADALGVSVEELMLTRNATESFVNLITQYDELSSGNAILWADADYPEFKRMMSWLAESRQVRGTMLSLPAAGTDEDYIRIYREAFDALPDLKLMLLTHVSNQHGLVLPVREIAAIAKCRGIHVICDCAQSWGLLDFTLDDLNVDWAVFNLHKWIGSPVGVGALYMRHGTLVPVRPFPGEDSSDTDVANRVHLATSDFASFLTVPDALAFHRAIGGANKQARLNYLREAWVASLEGSSAVEVLGATGSKNASGMGAFRLRGQTSKVQVSALQTRLETEFRIFTVVRNDLASGACIRVTPQVFTPLEHVQALADAIVEISVTG” the “soluble on expression in E. coli” value was “not soluble”.
With “MNIDAVVEFTKKHLKDEKTGHDFYHGQRVANLASKMYLEDHPDAHADSRMVAIIKSGGYLHDTIDEKVCDNPDKVIAEIKELLPEVGFTDLEVWDILFTIQHMSFSANIEHHYHLPLSGQYVQDADRLESLGAMGIARAFTYGGKHGNKIYDPEIKPEKLVSHDQYRNHVETTINHFYEKLFHLADTMNTPAMKKEANRRTEYMHNFVQEFMNEWNVLEHHHHHH” the “soluble on expression in E. coli” value was “soluble”.
For “MAHHHHHHMILRTAGASNVYSVFAYPGTGKARDMLTTETADTSGSESGNLTNVRARHCAHFQFNKMCNLGESCNFIHSLVPYVQRLSMSSQGPLYNSIVTQRPLLMPSTSMAHFSRFPNGNNNNGVVSSYSMEFMQPSMLHVSPQTQQQQQQQKQQQKQQQKQLHQQPQHAMPPPPPTVSHLIPSPQPSEHLMYQSNMSMMSLPMYMSSPISSTWDGVRYGANYQ”, the “soluble on expression in E. coli” value was “not soluble”.
In the case of “MEEVKDDKTYKGFVDRLTLGITRVLENLPGVLDVRFVEKAPAEKRCLLSWEQKNNCALPEDLRDFYLTTDGFMLAWNSKLENEVVPVGCMMINNVAQLRPLIQSNVYCLPNAPTLADLDFDDDIDGSDGPEKPHFDLRSRIFELDSCNGNGKVCLVYKSCSPGVMAQQCEVWFLDRSLFWHYLTPSFTAYYRLMITHLGLPEWQYNFTPYGPSPQAKQWAALYQPLTFHSDPHLDTSSEPFLNKLDPTKAFRGKAKPPTPKKKQPAQVPASGTGTAKGQGLSGRHSVAKR”, the “soluble on expression in E. coli” value is reported as “soluble”.
With “MGSDKIHHHHHHMIILFGNQKGGCGKTTNCIQFANYLVEKGKEVLVLDLDFQRSLSDRRKEDIATYDNEPKYEVIQTDISNVAKIISDFTKVEQGNLLIDLPGKIDDDALGTILKAADIIICPFKYDKFTMDSTGFFIQVLQYLNVKAKIFFLPNNMRAAVRYETKEQVVDILKQVGFVTDEIPASVAMERINTLTISNECIDKVKNAYDYIIQEGAIK” the “soluble on expression in E. coli” value was “not soluble”.
For “MDLWKLYQPGTPAAIVAWGQLGTAHAKTTYGLLRHSRLFKPVCVVAEHEGKMASDFVKPVRYDVPVVSSVEKAKEMGAEVLIIGVSNPGGYLEEQIATLVKKALSLGMDVISGLHFKISQQTEFLKIAHENGTRIIDIRIPPLELDVLRGGIYRKKIKVVGVFGTDCVVGKRTTAVQLWERALEKGIKAGFLATGQTGILIGADAGYVIDAVPADFVSGVVEKAVLKLEKTGKEIVFVEGQGALRHPAYGQVTLGLLYGSNPDVVFLVHDPSRDHFESFPEIPKKPDFEEERRLIETLSNAKVIGGVSLNGGFETDLPVYDPFNTDDLDEMLERAMVW”, the “soluble on expression in E. coli” value was “not soluble”.
For “MAHHHHHHMETIQELILSEENKTNIAVLNLGTNDRRNAVLILETALHLVEKYLGKIINTSYLYETVPEYIVLDKKESCEKINKDCRIYDVNYINELMQNLEESKYEENKELIDKCEEYETFLKNGKVDNSILKEVNVENYLLECNNIIVKNDEIMKNNLSKYKDKYYTSYFYNLTVVVKTFVNDPLSMLVVIKYIEELMKRENVKEKEKFENRIIDIDILFFNDFTIFMKNIKLEKNMIYKILSKYIHLERDIKNGNDNMSKVNMDKDINLNNNNNIKKKNNNDIDCDCVDQKMNNHVNNKNYINSFRDPQEIINNMVDNIEFLSIPHVYTTHRYSILLCLNDMIPEYKHNVLNNTIRCLYNKYVSRMKEQYNINIKENNKRIYVLKDRISYLKEKTNIVGILNVNYDSFSDGGIFVEPKRAVQRMFEMINEGASVIDIGGESSGPFVIPNPKISERDLVVPVLQLFQKEWNDIKNKIVKCDAKPIISIDTINYNVFKECVDNDLVDILNDISACTNNPEIIKLLKKKNKFYSVVLMHKRGNPHTMDKLTNYDNLVYDIKNYLEQRLNFLVLNGIPRYRILFDIGLGFAKKHDQSIKLLQNIHVYDEYPLFIGYSRKRFIAHCMNDQNVVINTQQKLHDEQQNENKNIVDKSHNWMFQMNYMRKDKDQLLYQKNICGGLAIASYSYYKKVDLIRVHDVLETKSVLDVLTKIDQV”, the “soluble on expression in E. coli” value was “not soluble”.
With “MGSDKIHHHHHHMKLRCAIVDDEPLALSLLESYVNKTPFLELAGKYSSAVQAMKELPGNQIDLLFLDIQMPELNGLEFSKMVAPRTRIVFTTAFGQYAIDGYRVNALDYLLKPISYVDFLQAANKALQWFELVQKPEEVDSIFVKSDYKLVQVELKKILYIEGLKDYIKIYTEDAPKPILSLMSMKSMEELLPPARFMRVHRSFIVQKDKIRIIDRGRIVFDKTYIPVSDSYKQTFQTFLDERS” the “soluble on expression in E. coli” value was “not soluble”.
For “MGSDKIHHHHHHMIVGIDVGGTNTDVAVLEGNVFQIKSFRTSEVIQNLSDFIEKNFGDAEAVGIGVAVWFVDGKPVKAPNLPAIPKMELDVPFIVDNDANCFAYFAAKTLNFRHLLAVTVGTGIGGGIVADGKIYRGRGAAGEIGHTFVGGRKRCRCGGEGHLEAYFGGWAMENVKELIDTGEIYSTAEFALFCRSLANAVMLLNPEAIALGGRIGGRLDERPLAEKVNRYLPEEIDVVVRVVKDDYAVAKGAALLALDTISQNLP”, the “soluble on expression in E. coli” value was “not soluble”.
For “MEVLLTETFYTIGRSPRADIRIKSQFVSRIHAVLVRKSSDDVQAAYRIIDGDEDGQSSVNGLMINGKKVQEHIIQTGDEIVMGPQVSVRYEYRRRDQFGTMLEHHHHHH”, the “soluble on expression in E. coli” value was “not soluble”.
